Assay results reported in PMC7789494.

Substrate: O=C1C(Cl)=CC(=Nc2ccc(O)cc2)C=C1Cl
Experiment: purified protein
Format: biochemical, Phanerodontia chrysosporium
Details: 500 µM cellobiose, 50 mM sodium acetate pH 4.5, electron acceptor

B1: PcCDHTr (Phanerodontia chrysosporium) (protein)
chain: QSASQFTDPTTGFQFTGITDPVHDVTYGFVFPPLATSGAQSTEFIGEVVAPIASKWIGIALGGAMNNDLLLVAWANGNQIVSSTRWATGYVQPTAYTGTATLTTLPETTINSTHWKWVFRCQGCTEWNNGGGIDVTSQGVLAWAFSNVAVDDPSDPQSTFSEHTDFGFFGIDYSTAHSANYQNYLNGDSGNPTTTSTKPTSTSSSVTTGPTVSATPYDYIIVGAGPGGIIAADRLSEAGKKVLLLERGGPSTKQTGGTYVAPWATSSGLTKFDIPGLFESLFTDSNPFWWCKDITVFAGCLVGGGTSVNGALYWYPNDGDFSSSVGWPSSWTNHAPYTSKLSSRLPSTDHPSTDGQRYLEQSFNVVSQLLKGQGYNQATINDNPNYKDHVFGYSAFDFLNGKRAGPVATYLQTALARPNFTFKTNVMVSNVVRNGSQILGVQTNDPTLGPNGFIPVTPKGRVILSAGAFGTSRILFQSGIGPTDMIQTVQSNPTAAAALPPQNQWINLPVGMNAQDNPSINLVFTHPSIDAYENWADVWSNPRPADAAQYLANQSGVFAGASPKLNFWRAYSGSDGFTRYAQGTVRPGAASVNSSLPYNASQIFTITVYLSTGIQSRGRIGIDAALRGTVLTPPWLVNPVDKTVLLQALHDVVSNIGSIPGLTMITPDVTQTLEEYVDAYDPATMNSNHWVSSTTIGSSPQSAVVDSNVKVFGTNNLFIVDAGIIPHLPTGNPQGTLMSAAEQAAAKILALAGGP
notes: full two-domain flavocytochrome, native signal peptide (cleaved), untagged, secreted by Trichoderma reesei delta-xyr1; 83 kDa by SDS-PAGE
Km: 4.31 ± 0.11 µM | kcat: 24.4 ± 0.2 s⁻¹ | kcat/Km: 5.66e+06 ± 159000 M⁻¹ s⁻¹
